Data as given in patent US20250186604A1 (ADC THERAPEUTICS, published 2025).

Target: T1, Human PSMA (Prostate-Specific Membrane Antigen) (human, UniProt Q04609 44-750, limits assumed)
T1 construct: Coated on a 96 well plate at 3 ug/ml
Test: ELISA, human PSMA coated on plate, anti-human-IgG-HRP detection
Description: Human PSMA was coated on a 96 well plate at 3 μg/ml for at least two hours at room temperature. The plate was washed with wash buffer (0.05% Tween-20 in PBS), then blocked with blocking buffer (3% BSA in PBS) washed again using wash buffer. After which antibodies were titrated from 66.6 nM to 0.013 nM and added to the plate and incubated at room temperature for one hour, after which the plate was washed and anti-human-IgG-HRP added, the plate was incubated for a further 1 hour at room temperature, before being washed and TMB detection reagent added, the reaction was stopped by the addition of 1M HCl to the wells, after which the plate was read at 450 nm using the SpectraMax plate reader.

T1 sequence (Q04609 44-750 limits assumed): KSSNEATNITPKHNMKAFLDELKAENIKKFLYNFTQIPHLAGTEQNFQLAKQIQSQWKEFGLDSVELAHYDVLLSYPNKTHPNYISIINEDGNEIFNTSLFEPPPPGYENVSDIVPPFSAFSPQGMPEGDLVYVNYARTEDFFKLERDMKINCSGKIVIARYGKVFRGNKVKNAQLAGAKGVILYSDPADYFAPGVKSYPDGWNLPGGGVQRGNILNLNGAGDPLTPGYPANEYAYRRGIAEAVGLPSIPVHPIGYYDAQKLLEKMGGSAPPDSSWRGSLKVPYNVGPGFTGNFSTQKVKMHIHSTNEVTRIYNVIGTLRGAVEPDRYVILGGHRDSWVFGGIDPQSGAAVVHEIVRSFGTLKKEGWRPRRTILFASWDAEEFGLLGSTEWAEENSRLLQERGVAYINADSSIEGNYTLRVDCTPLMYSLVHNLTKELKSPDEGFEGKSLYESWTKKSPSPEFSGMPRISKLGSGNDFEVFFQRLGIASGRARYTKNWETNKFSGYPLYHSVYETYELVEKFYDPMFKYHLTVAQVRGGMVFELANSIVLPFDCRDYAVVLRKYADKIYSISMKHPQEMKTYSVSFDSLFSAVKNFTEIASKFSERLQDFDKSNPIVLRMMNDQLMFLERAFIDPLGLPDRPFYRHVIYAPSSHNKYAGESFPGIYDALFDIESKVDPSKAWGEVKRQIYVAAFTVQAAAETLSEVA

Binder	EC50
J415 (antibody, V domains shown) VH: EVKLEESGGGLVQPGGSMKLSCVASGFTFSNYWMNWVRQSPEKGLEWVAEIRSQSNNFATHYAESVKGRVIISRDDSKSSVYLQMNNLRAEDTGIYYCTRRWNNFWGQGTTLTVSS VL: NIVMTQFPKSMSISVGERVTLTCKASENVGTYVSWYQQKPEQSPKMLIYGASNRFTGVPDRFTGSGSATDFILTISSVQTEDLVDYYCGQSYTFPYTFGGGTKLEMK	24800 pM
MDX 2A10 (antibody, human IgG1, kappa, V domains shown, also called antibody 2A10) VH: EVQLVQSGAEVKKPGESLKISCKGSGYSFTSNWIGWVRQMPGKGLEWMGIIYPGDSDTRYSPSFQGQVTISADKSISTAYLQWSSLKASDTAMYYCARQTGFLWSSDLWGRGTLVTVSS VL: AIQLTQSPSSLSASVGDRVTITCRASQDISSALAWYQQKPGKAPKLLIYDASSLESGVPSRFSGYGSGTDFTLTINSLQPEDFATYYCQQFNSYPLTFGGGTKVEIKR	114 pM
D2B (antibody, V domains shown) VH: EVKLQESGPGLVKPSQSLSLTCSVTGYSITSGYYWNWIRQFPGNKLEWMGSISFDGNNNYNPSLRNRISITRDTSKNQFFLKLNSVTTEDTATYYCAREGDYYGSSFFTYWGQGTLVTVS VL: DIVMTQSPASLSASVGETVTLTCGASENIYGALNWYQRKQGKSPQLLIYGATNLADGMSSRFSGSGSGRQYSLKISSLHPDDVATYYCQNVFRTYTFGGGTKLEIKR	173 pM
